Assay results as given in US6194173A, “Binding proteins for phosphoinositides, GRP1 or general receptor 1 for phophoinositide” (priority 1999, dated 2001).
Entries after “also recorded” stand apart in the source; their conditions may differ.

Key:
PH domain of PLCγ1 = settings: cited from earlier work
GRP = biological target: T1, GRP (Mus musculus, UniProt O08967); experiment: Effect of phosphoinositides on GRP-catalyzed ARF1 guanine nucleotide exchange; format: biochemical; settings: 25 μM lipid, 0.15 μM GRP
T1 construct: GST (N, cleaved yes); made in house; host or cells: GRP from pGEX-4T; ARF1 from baculovirus-infected Sf-9 cells
T1 sequence (O08967 1-399): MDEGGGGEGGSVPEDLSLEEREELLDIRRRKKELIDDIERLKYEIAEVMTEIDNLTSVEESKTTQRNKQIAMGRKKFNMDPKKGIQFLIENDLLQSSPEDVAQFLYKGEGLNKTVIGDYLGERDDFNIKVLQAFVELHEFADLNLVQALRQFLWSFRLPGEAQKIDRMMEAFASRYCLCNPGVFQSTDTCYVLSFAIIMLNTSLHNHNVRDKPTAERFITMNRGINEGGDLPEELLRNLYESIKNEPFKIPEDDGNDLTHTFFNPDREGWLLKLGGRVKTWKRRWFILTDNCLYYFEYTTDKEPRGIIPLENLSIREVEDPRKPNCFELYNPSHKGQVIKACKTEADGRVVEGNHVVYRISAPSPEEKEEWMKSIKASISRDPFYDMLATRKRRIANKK

PH domain of GRP = biological target: T2, PH domain of GRP (Mus musculus, UniProt O08967); experiment: Competition for [3H]dioctanoyl PtdIns(3,4,5)P3 binding to the PH domain of GRP; set-up: GST fused to the PH region of GRP (amino acids 239-399); made in house; host or cells: bacteria; settings: FIG. 9B
T2 sequence (O08967 239-399): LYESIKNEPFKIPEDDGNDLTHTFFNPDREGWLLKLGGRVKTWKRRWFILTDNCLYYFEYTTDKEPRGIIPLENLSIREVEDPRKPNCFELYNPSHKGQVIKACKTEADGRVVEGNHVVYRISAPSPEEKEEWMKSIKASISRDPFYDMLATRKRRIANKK
Procedure: Binding assays were performed as described in (Rameh, L. E. et al., J. Biol. Chem., In Press). Briefly, GST fused to the PH region of GRP (amino acids 239-399) was bound to glutathione immobilized on agarose beads (Sigma). Synthetic [^3 H]-labeled diotanoyl PtdIns(3,4,5)P3 was added, and after one hour the beads were separated from the supernatant by centrifugation. The amount of [^3 H]-PtdIns(3,4,5)P3 bound to the PH domain was calculated by subtracting the amount of free [^3 H] present in supernatants from GST-GRP from the amount of free [^3 H] in supernatants from control GST. The data was fitted to the equation [bound]=Bmax×[free]/(KD + [free]) by least squares curve fit. For the competition assays the beads containing the GST-fusion proteins were incubated with 2.5 μM[^3 H]-labeled dioctanoyl PtdIns(3,4,5)P3 bound was calculated based on the amount of [^3 H] bound to the beads in the absence of competitor. The total [^3 H] bound to the GST control was less then 0.5% of the total [^3 H] bound to GRP PH domain. The data was fitted to the equation % bound=100-n×L/Klapp +L) where n is the % specific binding, L is the concentration of unlabeled lipid added and Klapp is the apparent competitive dissociation constant. The rations of the apparent dissociation constants accurately reflect the ratios of the true dissociation constants under the present experimental conditions (Rameh, L. E. et al., J. Biol. Chem., In Press).
The data depicted in FIG. 8 indicate that receptor signaling through PI3-kinases, which generates PtdIns(3,4,5)P3, may specifically regulate ARF proteins through GRP. In order to further test this, the relative binding affinities of PtdIns(3,4,5)P3 versus PtdIns (4,5)P2, which is constitutively present in cell membranes, for the PH domain of GRP were determined. A GST fusion protein of the PH domain of GRP was incubated with various concentrations of synthetic [^3 H]dioctanoyl PtdIns(3,4,5)P3 and binding was determined (FIG. 9A). These experiments show high affinity binding of this polyphosphoinositide,with a calculated Kd=0.5 μM.

ARNO = settings: vesicles with high concentrations of negatively charged phospholipids; cited from earlier work
[1] = system: integrin β2 cytoplasmic domain; settings: through Sec7 homology region; cited from earlier work
ARF5 [2] = settings: cited from earlier work
ARF1 = ARF1 guanine nucleotide exchange ([35S]GTPγS binding); format: biochemical
ARF5 [3] = experiment: ARF5 guanine nucleotide exchange ([35S]GTPγS binding); format: biochemical
[4] = Binding of [32P]PI(3,4,5)P3 by GST fusion proteins spotted on nitrocellulose; settings: 150 pmol protein on nitrocellulose; relative to GST
Procedure: The 3'-phosphatidylinositol probes labeled at the 3' position were generated using GST-p110 PI3-kinase purified from recombinant bacculovirus infected Sf 9 cells, using either purified phosphatidylinositol phosphates or crude brain lipid. Briefly, 20 mg phospholipid in chloroform was dried under N2 and resuspended in […] of buffer containing Tris-HCl pH 7.4, EDTA 1 mM and incubated in […] phopsphorylation media containing 20 mM Tris-HCl pH 7.4, 100 mM NaCl, 10 mM MgCl2, 0.5 mM EGTA. 0.2 mM adenosine, GST-p110 and 5-10 mCi [g-^32 P]ATP (5 Ci/umol). The reaction was carried out for 2 h at room temperature, quenched by addition of 0.2 ml of 1M HCl, followed by 0.5 ml of chloroform:methanol (1:1). The organic phase containing phospholipids was washed 4 times with 0.4 ml of methanol:HCl (1: 1) and stored at -70° C. until use. Just before use, the lipid was dried under a stream of nitrogen with phosphatidyl serine corresponding to a final concentration of 20 mg/ml. The identities of the PI3-P, PI3,4-P2 and PI3,4,5-P3 were confirmed by TLC and HPLC analysis.
To generate the GST fusion proteins, PCR reactions using the primers: […] (SEQ ID NO:9) and […] (SEQ ID NO:10) for the GST-N construct, […] (SEQ ID NO:11) and […] (SEQ ID NO:12) for the GST-Sec7 construct, […] (SEQ ID NO:13) and […] (SEQ ID NO:14) for the GSTPH construct, and […] (SEQ ID NO:15) and […] (SEQ ID NO:16) for the GSTGRP constructs. The sequences of the PCR products were verified, and cloned into pGEX-5X-3 in the EcoRI and Xba 1 sites. The bacteria were lysed and the fusion proteins were bound to gluthathione agarose according to standard procedures. Elution was effected by incubation of the beads with one volume 20 mM Hepes, 100 mM NaCl, 1 mM dithiotreitol (H buffer) supplemented with 10 mM gluthatione and 1% sodium cholate, and the eluate was dialyzed extensively against H buffer. For binding assays, protein was bound to nitrocellulose using a BIO-RAD BIO-DOT™ apparatus, using 150 pmol per well for binding assays and 7.5 pmol for competition assays. The nitrocellulose was washed in assay buffer, and 3 mm circles of the filters containing the protein were cut out and incubated in […] assay buffer with the relevant lipids and competitors for 2 h under constant agitation. The filters were washed four times with 1 mL assay buffer and counted in a scintillation counter.
In order to determine whether PI(3,4,5)P3 binding could be localized to specific sequences within the GRP structure, GST fusion proteins containing either residues 239 to 399 (PH domain), residues 52 to 260 (Sec7 domain), or residues 5 to 71, full length GRP residues 5-399 were expressed in bacteria and purified on glutathione-conjugated beads. […] 150 pmol of the proteins were spotted on nitrocellulose filters, incubated with [^32 P]PI(3,4,5)P3 and the amount of bound lipid was determined as described. The values are the means of the quadruplicate determinations, and the error bars are the standard deviations. […] Nitrocellulose filters with GST-PH were incubated with 25,000 cpm of each of the phospholipids and the amount of bound lipid determined as described above. The values are the means of quadruplicate determinations and the error bars are the standard deviations. […] Although previous work has shown that PH domain from PLCδ (Lemmon et al. (1995) supra) and various other proteins bind 4,5-polyphosphoinositide, none have been reported to preferentially associate with a 3-polyphosphoinositide. […]

ARF6 = ARF6 guanine nucleotide exchange ([35S]GTPγS binding); format: biochemical
[5] = 40 minutes, phosphatidylcholine and cholate

## PtdIns(4,5)P2
PH domain of PLCγ1
  interaction with isolated PH domain of PLCγ1: high affinity
GRP; 0.05% cholate and 0.05% CHAPS (low negative charge)
  stimulation of ARF1 exchange activity in the presence of GRP: little or no effect
GRP; 0.1% cholate (high negative charge)
  stimulation of ARF1 exchange activity in the presence of GRP: stimulated
PH domain of GRP
  affinity, fold lower than PtdIns(3,4,5)P3: 50 fold
ARNO
  recruitment of ARNO and stimulation of guanine nucleotide exchange on ARF1: causing stimulation of guanine nucleotide exchange on ARF1; also recorded: sufficient for its recruitment to membranes as well as activation of ARF exchange

B1: cytohesin-1: B2-1 encoded protein (denoted cytohesin 1) (protein)
chain: MEEDDSYVPSDLTAEERQELENIRRRKQELLADIQRLKDEIAEVANEIENLGSTEERKNMQRNKQVAMGRKKFNMDPKKGIQFLIENDLLKNTCEDIAQFLYKGEGLNKTAIGDYLGERDEFNIQVLHAFVELHEFTDLNLVQALRQFLWSFRLPGEAQKIDRMMEAFAQRYCQCNNGVFQSTDTCYVLSFAIIMLNTSLHNPNVKDKPTVERFIAMNRGINDGGDLPEELLRNLYESIKNEPFKIPEDDGNDLTHTFFNPDREGWLLKLGGGRVKTWKRRWFILTDNCLYYFEYTTDKEPRGIIPLENLSIREVEDSKKPNCFELYIPDNKDQVIKACKTEADGRWEGNHTVYRISAPTPEEKEEWIKCIKAAISRDPFYEMLAARKKKVSSTKRH
[1]
  binding of the integrin β2 cytoplasmic domain: high affinity
ARF5 [2]
  ARF5 as substrate for cytohesin-1: not to be a substrate

B2: GRP: general receptor for phosphoinositides, mouse protein with SEC7 and PH domains (protein)
chain: MDEGGGGEGGSVPEDLSLEEREELLDIRRRKKELIDDIERLKYEIAEVMTEIDNLTSVEESKTTQRNKQIAMGRKKFNMDPKKGIQFLIENDLLQSSPEDVAQFLYKGEGLNKTVIGDYLGERDDFNIKVLQAFVELHEFADLNLVQALRQFLWSFRLPGEAQKIDRMMEAFASRYCLCNPGVFQSTDTCYVLSFAIIMLNTSLHNHNVRDKPTAERFITMNRGINEGGDLPEELLRNLYESIKNEPFKIPEDDGNDLTHTFFNPDREGWLLKLGGRVKTWKRRWFILTDNCLYYFEYTTDKEPRGIIPLENLSIREVEDPRKPNCFELYNPSHKGQVIKACKTEADGRVVEGNHVVYRISAPSPEEKEEWMKSIKASISRDPFYDMLATRKRRIANKK
ARF1; [5]
  concentration that maximally activates labeled nucleotide binding to ARF1: 2.5 µM
ARF1; [^35 S]GTPγS binding to immunoprecipitated ARF1
  ARF1 guanine nucleotide exchange: catalyze nucleotide exchange; also recorded: selectively catalyzes
ARF5 [3]; [5]
  concentration that maximally activates labeled nucleotide binding to ARF5: 2.5 µM
ARF5 [3]; [^35 S]GTPγS binding
  ARF5 guanine nucleotide exchange: significantly enhanced; also recorded: catalyze nucleotide exchange; also recorded: selectively catalyzes
[4]
  binding of [^32 P]PI(3,4,5)P3 by GST fusion protein: extensive binding
ARF6
  ARF6 guanine nucleotide exchange: no effect and not
